In patent publication US11685791B2, “Antibody binding specifically to N-terminal region of lysyl-tRNA synthetase exposed on cell membrane” (Zymedi Co., Ltd., priority 2017, dated 2023):
Each block holds one molecule with its values, some of them ahead of it.

Tests used:
[1] = test system: pulmonary arterial hypertension (PAH) models; test: Blood pressure and cardiac output in monocrotaline PAH model; assay type: in vivo, rat; settings: MCT + Sildenafil 25 mpk orally every day, 3 weeks
Procedure: After three weeks, the rats were anesthetized with isoflurane, and measured for blood flow and pressure by using a high-precision pneumatic measurement system (MPVS cardiovascular pressure and volume system, model name: MPVS Ultra, manufacturer: Millar Instruments). The right ventricular end-systolic pressure (RVESP), right ventricular end-diastolic pressure, left ventricular end-systolic pressure, left ventricular end-diastolic pressure were measured using an exclusive catheter (Mikro-Tip rat pressure catheter, manufacturer: Millar Instruments). The cardiac output was measured using a perivascular blood flow probe (Transonic Flow probes, manufacturer: Millar Instruments), and experimental method thereof was performed by the same method as disclosed in the following literature: Pacher P, Nagayama T, Mukhopadhyay P, Batkai S, Kass D A. Measurement of cardiac function using pressure-volume conductance catheter technique in mice and rats. Nat Protoc 2008; 3(9):1422-34.
The models of PAH, which is a disease having a close relation between immune cell invasion and pathological phenomena, were treated with N3 IgG antibody (1 mpk or 10 mpk) for 3 weeks (i.v., twice a week), and then measured for right ventricular end-systolic pressure (RVESP), right ventricular end-diastolic pressure (RVEDP), left ventricular end-systolic pressure (LVESP), left ventricular end-diastolic pressure (LVEDP), and cardiac output (CO).

[2] = test system: pulmonary arterial hypertension (PAH) models; test: Echocardiography in PAH model; assay type: in vivo, rat; settings: MCT PAH rats, five animals per group
Text: (§3) To induce PAH in seven-week-old SD rats (Orient Bio), 60 mpk of monocrotaline (MCT) was subcutaneously injected. […] All antibodies were i.v. injected twice a week, and sildenafil was orally administered every day.

[3] = Body weight change in PAH model; settings: MCT + Sildenafil, n = 5
Text: as §3

[4] = biological target: T1, KRS N-terminal region exposed on the cell membrane (A549 cells, myc-KRS WT/T52D/T52A) (Homo sapiens, UniProt Q15046, T52D); test: Immunofluorescence of scFv clones on cells with KRS N-terminal region exposed on the cell membrane; assay type: cell-based; settings: A549 cells expressing myc-KRS T52D (active), T52A (inactive) or WT-KRS (laminin untreated)
T1 construct: expressed in transfected cells; host or cells: A549
T1 sequence (Q15046 whole entry T52D): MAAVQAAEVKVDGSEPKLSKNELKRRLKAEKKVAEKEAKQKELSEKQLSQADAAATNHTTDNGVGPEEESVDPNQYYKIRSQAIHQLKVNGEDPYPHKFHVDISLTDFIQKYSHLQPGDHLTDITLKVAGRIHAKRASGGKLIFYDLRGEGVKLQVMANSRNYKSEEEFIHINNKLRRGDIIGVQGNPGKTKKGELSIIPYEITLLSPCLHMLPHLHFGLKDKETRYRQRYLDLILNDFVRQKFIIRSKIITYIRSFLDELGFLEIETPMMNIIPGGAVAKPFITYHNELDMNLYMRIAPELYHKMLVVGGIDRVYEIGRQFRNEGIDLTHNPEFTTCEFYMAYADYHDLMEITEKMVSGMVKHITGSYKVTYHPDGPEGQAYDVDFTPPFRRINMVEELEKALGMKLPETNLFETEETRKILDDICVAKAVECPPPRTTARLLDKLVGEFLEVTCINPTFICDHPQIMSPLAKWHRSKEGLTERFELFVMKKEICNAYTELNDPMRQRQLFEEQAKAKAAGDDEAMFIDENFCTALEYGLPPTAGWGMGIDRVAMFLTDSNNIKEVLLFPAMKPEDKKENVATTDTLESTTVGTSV
Procedure: (§1) Immunofluorescence was performed to investigate whether the scFv clones selected in Example <1-5> actually bound to the KRS N-terminal region exposed on the cell membrane. In order to make a phenomenon in which KRS is exposed on the membrane, KRS-T52D mutant (active mutant) was used. […] After incubation for 24 h, the cells were incubated using serum-free media (RPMI 1640 media) at 37° C. for 1 h. Thereafter, the cells were treated with 10 μg/ml laminin (L2020; Sigma) and then incubated at 37° C. for 1 h.
(§2) The prepared samples were washed with PBS (4° C.), fixed by the treatment with 4% paraformaldehyde for 10 min, and then washed. The samples were blocked with CAS block for 10 min, and treated with the scFv and Myc antibodies for 2 h. Thereafter, the unbound antibodies were washed out, and incubated with secondary antibodies for 1 h in a dark room. DAPI staining was performed for 10 min before mounting.

[5] = biological target: T2, KRS N-terminus (Homo sapiens, UniProt Q15046); test: Western blotting of scFv clones against full-length KRS and KRS fragments; assay type: binding; settings: full-length KRS, fragment lacking N-terminal aa 1-71, fragment aa 1-200; transformed A549 lysate
T2 construct: a KRS fragment composed of amino acid residues 1-200 in the N-terminus; expressed in transfected cells; host or cells: A549
T2 sequence (Q15046 1-200): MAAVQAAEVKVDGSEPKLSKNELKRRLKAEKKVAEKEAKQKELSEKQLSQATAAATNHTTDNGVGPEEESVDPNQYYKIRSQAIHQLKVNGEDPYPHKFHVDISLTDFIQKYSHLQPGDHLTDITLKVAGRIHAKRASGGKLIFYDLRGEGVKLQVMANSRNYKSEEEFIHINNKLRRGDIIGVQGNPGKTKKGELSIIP
Text: To investigate whether the scFv clones (N3, N5, N7, and N9) finally selected through Example <1-6> actually bound to KRS N-terminus, full-length KRS (denoted by F, SEQ ID NO: 76), a KRS fragment with deletion in amino acids at positions 1-71 in the N-terminus (defined by SEQ ID NO: 1), and a KRS fragment composed of amino acid residues 1-200 in the N-terminus (defined by SEQ ID NO: 2) were used to conduct western blotting.
A549 cells were transformed by the method as described in Example <1-6> using polynucleotides encoding full-length KRS and KRS fragments. Thereafter, the cells were lysed, and western blotting was performed by the same method as described in Example <1-4>.

[6] = biological target: T3, KRS 1-207 aa (Homo sapiens, UniProt Q15046); test: SPR (Biacore 2000) binding of IgGs to immobilized KRS; settings: immobilized KRS 185 RU, antibody 6.25-100 nM
T3 construct: to the antigen (KRS 1-207 aa)
T3 sequence (Q15046 1-207): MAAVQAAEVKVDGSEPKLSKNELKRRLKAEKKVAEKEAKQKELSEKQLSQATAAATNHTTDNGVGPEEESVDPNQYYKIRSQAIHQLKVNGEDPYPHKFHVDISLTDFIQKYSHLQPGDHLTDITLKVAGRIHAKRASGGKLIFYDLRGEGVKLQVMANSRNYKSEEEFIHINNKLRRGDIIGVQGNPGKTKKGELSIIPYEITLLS
Procedure: The quantitative binding ability of the purified antibody proteins (N3 IgG and N5 IgG) to the antigen (KRS 1-207 aa) were measured using Biacore 2000 SPR (surface plasmon resonance) (GE healthcare, US) biosensor. After KRS was immobilized on a sensor chip (CM5, GE healthcare, US), antibody proteins (6.25-100 nM), which were serially diluted with HES buffer solution (10 mM HEPES, pH 7.4, 150 mM NaCl, 3 mM EDTA, 0.005% surfactant P20), were allowed to flow at a rate of 30 μl/min for 3 min, and 1 M NaCl/20 mM NaOH was allowed to flow at a rate of 30 μl/min for 3 min, thereby inducing the dissociation of proteins bound to the antigen. Mock IgG was used as control. Specific experiment conditions are as follows:
Immobilized level: 185 RU
Antibody: N3 IgG and N5 IgG
Running buffer: HBS-N buffer
Regeneration: 2 M NaCl, 20 mM NaOH (flow 30 ul/min 1 min)
The affinity was obtained from the kinetic rate constants (ka and kd) and equilibrium dissociation constants (KD) by using BIA evaluation ver. 3.2 software. FIGS. 6A-6B show SPR graph results of N3 IgG and N5 IgG, respectively. It was confirmed from FIGS. 6A-6B and Table 3 that N3 IgG and N5 IgG of the present invention has high specific binding ability to the KRS N-terminal region.

[7] = biological target: T4, KRS (Homo sapiens, UniProt Q15046); test: Western blotting and immunoprecipitation of converted IgGs; assay type: binding; settings: HCT116 cell lysate
T4 construct: endogenous in cells; host or cells: HCT116
T4 sequence (Q15046 whole entry): as the sequence (Q15046 whole entry T52D) above, with D52T counted along it

[8] = biological target: T5, extracellularly exposed KRS N-terminal region (Homo sapiens, UniProt Q15046); test: Immunofluorescence staining of converted IgGs; assay type: cell-based; settings: WT-KRS membrane localization induced by laminin treatment
T5 construct: expressed in transfected cells; host or cells: A549
T5 sequence (Q15046 whole entry): as the sequence (Q15046 whole entry T52D) above, with D52T counted along it
Procedure: as §1, §2
To investigate whether the IgGs constructed in the present invention actually bound to the region of KRS exposed on the cell membrane, immunofluorescence was performed. Immunofluorescence staining was performed by the same method as described in Example <1-6> by using N3 IgG and N5 IgG as representatives.

Molecule: CCCc1nn(C)c2c(=O)[nH]c(-c3cc(S(=O)(=O)N4CCN(C)CC4)ccc3OCC)nc12 [Sildenafil, sildenafil, reference compound]
CO ([1]; n = 4): 49.6 ± 17.7 mL/min | LVEDP ([1]; n = 5): 3.6 ± 2.3 mmHg | LVESP ([1]; n = 5): 83.2 ± 4.7 mmHg | RVEDP ([1]; n = 5): 2.6 ± 1.3 mmHg | RVESP ([1]; n = 5): 48.4 ± 9.6 mmHg | D-shaped left ventricle finding indicating pressure overload in the right ventricle [2]: three | body weight, absolute change [3]: 104.1 ± 26.4 g | body weight, relative change [3]: 49.8 ± 10.5%

B1: N5 scFv: scFv clone consisting of the amino acid sequence defined by SEQ ID NO: 69 (protein)
scFv: EVQLLESGGGLVQPGGSLRLSCAASGFTFSDYAMSWVRQAPGKGLEWVSWIYSGSGNKYYADSVKGRFTISRDNSKNTLYLQMNSLRAEDTAVYYCARMGLDFDYWGQGTLVTVSSGGGGSGGGGSGGGGSQSVLTQPPSASGTPGQRVTISCTGSSSNIGNNYVSWYQQLPGTAPKLLIYDDNQRPSGVPDRFSGSKSGTSASLAISGLRSEDEADYYCGTWDDSLSAYVFGGGTKLTVL
binding to membrane-exposed KRS N-terminal region (immunofluorescence) [4]: binding only active mutant cells | specific binding to KRS N-terminus (western blotting) [5]: specifically bound to the KRS N-terminus

B2: N7 scFv: scFv clone consisting of the amino acid sequence defined by SEQ ID NO: 71 (protein)
scFv: EVQLLESGGGLVQPGGSLRLSCAASGFTFSDYYMSWVRQAPGKGLEWVSGIYSGTGSIYYADSVEGRFTISRDNSKNTLYLQMNSLRAEDTAVYYSARPPYHFDYWGQGTLVTVSSGGGGSGGGGSGGGGSQSVLTQPPSASGTPGQRVTISCTGSSSNIGSNYVTWYQQLPGTAPKLLIYADSNRPSGVPDRFSGSKSGTSASLAISGLRSEDEADYYCGAWDYSLSGYVFGGGTKLTVL
binding to membrane-exposed KRS N-terminal region (immunofluorescence) [4]: binding only active mutant cells | specific binding to KRS N-terminus (western blotting) [5]: specifically bound to the KRS N-terminus

B4: N9 scFv: scFv clone consisting of the amino acid sequence defined by SEQ ID NO: 73 (protein)
scFv: EVQLLESGGGLVQPGGSLRLSCAASGFTFSNYDMSWVRQAPGKGLEWVSWIYSGDSSKYYADSVKGRFTISRDNSKNTLYLQMNSLRAEDTAVYYSARETRTFDYWGQGTLVTVSSGGGGSGGGGSGGGGSQSVLTQPPSASGTPGQRVTISCTGSSFNIGSNAVYWYQQLPGTAPKLLIYYNSQRPSGVPDRFSGSKSGTSASLAISGLRSEDEADYYCGSWDASLSGYVFGGGTKLTVL
binding to membrane-exposed KRS N-terminal region (immunofluorescence) [4]: binding only active mutant cells | specific binding to KRS N-terminus (western blotting) [5]: specifically bound to the KRS N-terminus

Continued, values first:

ka [6]: 3.13e+06 M⁻¹ s⁻¹ | kd [6]: 0.003282 s⁻¹ | KRS binding ability (western blotting and immunoprecipitation) [7]: bound to KRS | binding to extracellularly exposed KRS N-terminal region (immunofluorescence) [8]: favorably bound specifically
B3: N5 IgG: IgG converted from N5 scFv; VH SEQ ID NO: 53, VL SEQ ID NO: 55 (antibody, V domains shown)
VH: EVQLLESGGGLVQPGGSLRLSCAASGFTFSDYAMSWVRQAPGKGLEWVSWIYSGSGNKYYADSVKGRFTISRDNSKNTLYLQMNSLRAEDTAVYYCARMGLDFDYWGQGTLVTVSS
VL: QSVLTQPPSASGTPGQRVTISCTGSSSNIGNNYVSWYQQLPGTAPKLLIYDDNQRPSGVPDRFSGSKSGTSASLAISGLRSEDEADYYCGTWDDSLSAYVFGGGTKLTVL

binding to membrane-exposed KRS N-terminal region (immunofluorescence) [4]: binding only active mutant cells | specific binding to KRS N-terminus (western blotting) [5]: specifically bound to the KRS N-terminus
B5: N3 scFv: scFv clone consisting of the amino acid sequence defined by SEQ ID NO: 67 (protein)
scFv: EVQLLESGGGLVQPGGSLRLSCAASGFTFSSYDMSWVRQAPGKGLEWVSAISYDNGNTYYADSVKGRFTISRDNSKNTLYLQMNSLRAEDTAVYYSARMALDFDYWGQGTLVTVSSGGGGSGGGGSGGGGSQSVLTQPPSASGTPGQRVTISCTGSSSNIGSNYVTWYQQLPGTAPKLLIYDNSNRPSGVPDRFSGSKSGTSASLAISGLRSEDEADYYCASWDDSLSAYVFGGGTKLTVL
